Phage ELISA read-out data for one substance are collected here from patent publication US20100260763A1 (DOMANTIS, published 2010).

The target in assay [1] is T1, human TNFR1, soluble recombinant protein (human, UniProt P19438 22-211, limits assumed, biotinylated in the BIAcore assays (coupling via primary amines)).
T1 construct: also called biotinylated TNFR1; human recombinant E. coli-expressed human TNFR1
T1 sequence (looked up): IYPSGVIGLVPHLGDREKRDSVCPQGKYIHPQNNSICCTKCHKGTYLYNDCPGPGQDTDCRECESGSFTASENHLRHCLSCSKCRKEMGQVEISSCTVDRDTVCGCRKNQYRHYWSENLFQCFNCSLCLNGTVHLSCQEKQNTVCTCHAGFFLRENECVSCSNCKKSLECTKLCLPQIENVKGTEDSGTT
Description: phage ELISA, plate coated with 1 nM TNFR1, anti-M13-HRP; trypsin 0 µg/ml; phage input 1.13E+10.

The target of assay [2] is T1, human TNFR1, soluble recombinant protein. The experiment in a line: phage ELISA, plate coated with 1 nM TNFR1, anti-M13-HRP; trypsin 1 mg/ml 1 h room temp; phage input 1.13E+10. On the technique in general: ELISA stands for enzyme-linked immunosorbent assay.
For assay [3] the target is unchanged. The experiment in a line: phage ELISA, plate coated with 1 nM TNFR1, anti-M13-HRP; trypsin 10 µg/ml 1 h room temp; phage input 2.26E+10.
Assay [4] has the same target. The experiment in a line: phage ELISA, plate coated with 1 nM TNFR1, anti-M13-HRP; trypsin 0 µg/ml; phage input 3.52E+08.
The target is the same in assay [5]. The experiment in a line: phage ELISA, plate coated with 1 nM TNFR1, anti-M13-HRP; trypsin 10 µg/ml 1 h room temp; phage input 4.51E+10.
Assay [6] has the same target. Description: phage ELISA, plate coated with 1 nM TNFR1, anti-M13-HRP; trypsin 1 mg/ml 1 h room temp; phage input 1.41E+09.
The target is the same in assay [7]. Description: phage ELISA, plate coated with 1 nM TNFR1, anti-M13-HRP; trypsin 1 mg/ml 1 h room temp; phage input 2.82E+09.
Assay [8] has the same target. The experiment in a line: phage ELISA, plate coated with 1 nM TNFR1, anti-M13-HRP; trypsin 10 µg/ml 1 h room temp; phage input 7.05E+08.
For assay [9] the target is unchanged. Description: phage ELISA, plate coated with 1 nM TNFR1, anti-M13-HRP; trypsin 0 µg/ml; phage input 5.64E+09.
Assay [10] shares this target. Description: phage ELISA, plate coated with 1 nM TNFR1, anti-M13-HRP; trypsin 10 µg/ml 1 h room temp; phage input 5.64E+09.
For assay [11] the target is unchanged. Description: phage ELISA, plate coated with 1 nM TNFR1, anti-M13-HRP; trypsin 100 µg/ml 1 h room temp; phage input 5.64E+09.
Assay [12] has the same target. The experiment in a line: phage ELISA, plate coated with 1 nM TNFR1, anti-M13-HRP; trypsin 100 µg/ml 1 h room temp; phage input 2.26E+10.
Assay [13] has the same target. The experiment in a line: phage ELISA, plate coated with 1 nM TNFR1, anti-M13-HRP; trypsin 100 µg/ml 1 h room temp; phage input 4.51E+10.
Assay [14] shares this target. Description: phage ELISA, plate coated with 1 nM TNFR1, anti-M13-HRP; trypsin 100 µg/ml 1 h room temp; phage input 1.41E+09.
Assay [15] has the same target. The experiment in a line: phage ELISA, plate coated with 1 nM TNFR1, anti-M13-HRP; trypsin 10 µg/ml 1 h room temp; phage input 1.13E+10.
Assay [16] has the same target. Description: phage ELISA, plate coated with 1 nM TNFR1, anti-M13-HRP; trypsin 10 µg/ml 1 h room temp; phage input 1.41E+09.
For assay [17] the target is unchanged. The experiment in a line: phage ELISA, plate coated with 1 nM TNFR1, anti-M13-HRP; trypsin 1 mg/ml 1 h room temp; phage input 7.05E+08.
Assay [18] has the same target. Description: phage ELISA, plate coated with 1 nM TNFR1, anti-M13-HRP; trypsin 100 µg/ml 1 h room temp; phage input 1.13E+10.
The target is the same in assay [19]. Description: phage ELISA, plate coated with 1 nM TNFR1, anti-M13-HRP; trypsin 1 mg/ml 1 h room temp; phage input 5.64E+09.
Assay [20] has the same target. The experiment in a line: phage ELISA, plate coated with 1 nM TNFR1, anti-M13-HRP; trypsin 100 µg/ml 1 h room temp; phage input 2.82E+09.

On to DOM1h-131 displayed on phage, for which the phage ELISA read-out is 0.949 in assay [1]; 0.183 in assay [2]; 0.802 in assay [3]; 0.577 in assay [4]; 0.784 in assay [5]; 0.089 in assay [6]. Moreover, the phage ELISA read-out in assay [7] is 0.114; in [8], 0.286; in assay [9], 0.962; in assay [10], 0.695; in assay [11], 0.196; in assay [12], 0.377. Besides, the phage ELISA read-out in [13] is 0.418; in assay [14], 0.115; in assay [15], 0.86; in assay [16], 0.409; in assay [17], 0.084; in assay [18] it was 0.284. The values for the phage ELISA read-out in assay [19] and in assay [20] were 0.133 and 0.141, respectively.
